Measured values as given in publication PMC2100151, “Structural and Functional Characterization of the Human Protein Kinase ASK1” (Structure(London, England:1993), 2007).

Tests used:
[1] = target: the molecule itself; assay: AUC; sedimentation equilibrium; protein at 6.5, 11.9 and 25.2 μM, 10,000 and 15,000 rpm; global fit to a self-association model; dimer to monomers
[2] = target: the molecule itself; assay: AUC; sedimentation velocity; 13 μM protein in 10 mM HEPES pH 7.4, 120 mM NaCl, 0.25% glycerol, 4°C, 40,000 rpm; c(s) and c(M) distributions (SEDFIT)

Protein	Kd [1] [nM]	stoichiometry N [2]
Human ASK1 catalytic (kinase) domain, residues 659-951, phosphatase-treated (domain or fragment, mixture of un- and monophosphorylated protein; Thr838 partially phosphorylated in the crystal, Apoptosis signal-regulating kinase 1 (ASK1, MAP3K5), human, residues 659-951 of the 1,374-residue protein, gi|5174547; Crystallised with 1 mM staurosporine; also called MAP3K5; ASK1 kinase domain; not shown: His6, N-terminal, cleaved) not shown	220 ± 200	2
Human ASK1 catalytic (kinase) domain, homogeneously triphosphorylated (domain or fragment, phosphothreonine at 813, 838 and 842 (autophosphorylation sites identified by mass spectrometry), Apoptosis signal-regulating kinase 1 (ASK1, MAP3K5), human, residues 659-951, gi|5174547; the same recombinant construct as m1, autophosphorylated; also called Tri-phosphorylated ASK1; triphosphorylated ASK1; source: recombinant protein treated with ATP/Mg2+ (autophosphorylated)) not shown		2
